Assay: yeast display, Sf9 membrane polyspecificity reagent, FACS + sequencing; frameworks hold sequencing errors
Outline: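 Sorting gates, low and high (top ~1%), were placed on anti-HA fluorescence to track expression and on streptavidin fluorescence to track reagent binding. A clone's polyreactivity label is taken from the gate it came out of. The reagent was 10% biotinylated, detergent-solubilized Sf9 membrane, applied for 1 hour at 4 °C to galactose-induced yeast display cells.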
With “QVQLVESGGGLVQAGGSLRLSCAASGSTFKRYAMGRDRQAPGQERELVAAITWRGGSTYYADSVKGRFTISRDNAKNTVYLQMNSLKPEDTAVYYCNKASWKVGPGIGYDYWGQGTQVTVSS” the “polyreactivity (PSR sort gate)” value was “high polyreactivity”. With “QVQLVESGGGLVQAGGSLRLSCAASGSTFKRYAMGWYRQAHGKERELVAAISRRGGSTYYADSVKGRFTISRDNAKNTVYLQMNSLKPEDTAVYYCAARGTGNIYDYWGQGTQVTVSS” the “polyreactivity (PSR sort gate)” value was “high polyreactivity”. For “QVQLVESGGGLVQAGGSLRLSCAASGSTFKRYAMGWYRQAPGKERELVAAITRGGGSTYYADSVKGRFTISRDNAKNTVYLQMNSLKPEDTAVYYCNKGYRDYFTAYLSRYYWGQGTQVTVSS”, the “polyreactivity (PSR sort gate)” value was “high polyreactivity”. In the case of “QVQLVESGGGLVQAGGSLRLSCAASGSTFKSYAMGWYRQAPGKERELVAAINWSGGSTYYADSVKGRFTISRDNAKNTVYLQMTSLKPEDTAVYYCNAVYAVRSYDSWGQGTQVTVSS”, the “polyreactivity (PSR sort gate)” value is reported as “high polyreactivity”. With “QVQLVESGGGLVQAGGSLRLSCAASGSTFKSYAMGWYRQAPGKERELVAAITHRGSTYYADSVKGRFTISRDNAKNTVYLQMNSLKPEDTAVYYCAASLRAPSLGHYYYWGQGTQVTVSS” the “polyreactivity (PSR sort gate)” value was “high polyreactivity”. With “QVQLVESGGGLVQAGGSLRLSCAASGSTFKVYAMGWYRQAPGKERELVAAISRSGGRTYYADSVKGRFTISRDNAKNTVYLQMNSLKPEDTAVYYCNRDYTFSQGHYSGSYGYWGQGTQVTVSS” the “polyreactivity (PSR sort gate)” value was “high polyreactivity”. For “QVQLVESGGGLVQAGGSLRLSCAASGSTFKWYAMGWYRPAPGKEREFVAAITKTGGRTNYADSVKGRFTISRDNAKNTVYLQMNSLKPEDTAVYYCAAGYYAGIYYYWGQGTQVTVSS”, the “polyreactivity (PSR sort gate)” value was “high polyreactivity”. In the case of “QVQLVESGGGLVQAGGSLRLSCAASGSTFKYNAMGWYRQAPGKERELVAAITRGGRTYYADSVKGRFTISRDNAKNTVYLQMNSLKPEDTAVYYCAAKWLGTAGDDYWGQGTQVTVSS”, the “polyreactivity (PSR sort gate)” value is reported as “high polyreactivity”. In the case of “QVQLVESGGGLVQAGGSLRLSCAASGSTFKYYAKGWYRQAPGKERELVAAISASGGTTYYADSVKGRFTISRDNAKNTVYLQMNSLKPEDTAVYYCAARYLTTFSRTDMEYWGQGTQVTVSS”, the “polyreactivity (PSR sort gate)” value is reported as “low polyreactivity”. In the case of “QVQLVESGGGLVQAGGSLRLSCAASGSTFKYYSIGWYRQAPGKERELVASITGRTVGTYYADSVKGRFTISRDIAKNTVYLQMNSLKPEDTAVFYCATDLYWDYPDKGYTVSWWYGYWGQGTQVTVSS”, the “polyreactivity (PSR sort gate)” value is reported as “low polyreactivity”. With “QVQLVESGGGLVQAGGSLRLSCAASGSTFKYYTMGWYIQAPGKERELVAAITWRGGSTYYADSVKGRFTISRDNAKNTVYLQMNSLKPEDTAVYYCNVLQRYGASRYDYWGQGTQVTVSS” the “polyreactivity (PSR sort gate)” value was “high polyreactivity”. For “QVQLVESGGGLVQAGGSLRLSCAASGSTFKYYTMGWYIQAPGKERELVAGITLSGTTTYYADSEKGRFTISRDNAKNTVYLQMNSLKPEDTAVYYCAADYYHDFNAYYYWGQGTQVTVSS”, the “polyreactivity (PSR sort gate)” value was “low polyreactivity”. For “QVQLVESGGGLVQAGGSLRLSCAASGSTFLAYAMGWYRQAPGKERELVAAISSSGGRPYYADSVKGRFTISRDYAKNTVYLQMNSLNPEDTAVYYCAARYKNRGGFGYWGQGTRVTVSS”, the “polyreactivity (PSR sort gate)” value was “high polyreactivity”. For “QVQLVESGGGLVQAGGSLRLSCAASGSTFLFNGMGWYRQAPGKERELVAAISRSGGRTYYADSVKGRFTISRDNAKNTVYLQMNSLKPEDTAVYYCAAKYRLSGGYGVDYWGQGTQVTVSS”, the “polyreactivity (PSR sort gate)” value was “high polyreactivity”. In the case of “QVQLVESGGGLVQAGGSLRLSCAASGSTFLGYVMGWSRQAPGKERELVAAITRSGGRTYYADSVKGRFTISRDNAKNTVYLQMTSLNPEDTAVYYCAALRGPSFHGYGYWGQGTQVTVSS”, the “polyreactivity (PSR sort gate)” value is reported as “high polyreactivity”. With “QVQLVESGGGLVQAGGSLRLSCAASGSTFLKYTMGWYRQAPGKDRELVAGITRSSGSTYYADSVKGRFTISRDNAKNTVYLHMNSLKPEDTAVYYCAATVYLYTDLAYYWYGYWGQGTQVTVAS” the “polyreactivity (PSR sort gate)” value was “high polyreactivity”. In the case of “QVQLVESGGGLVQAGGSLRLSCAASGSTFLLYAMGWYRQAPGKERELVATISWGGDGTYYADSVKGRFTISRDHAKNTDYLQMNSLKPDDTAVYDCAAQSYLVQFYFLYYYWGQGTQVTVSS”, the “polyreactivity (PSR sort gate)” value is reported as “low polyreactivity”. With “QVQLVESGGGLVQAGGSLRLSCAASGSTFLRNAMGWYRQAPGKERELVAAISLGSGSTYYADSVKGRFTISRDNAKNTVYLQMNSLKPEDTAVYYCAADVSRWLDYGYDYWGQVTQVTVSS” the “polyreactivity (PSR sort gate)” value was “low polyreactivity”. With “QVQLVESGGGLVQAGGSLRLSCAASGSTFLRYAMGWYRQAPGKERELVATISRCDDGTYYADSVKGRFKISRDNEKNTVFLQMNSLKPEDNAVYYCDARSWYLYYYWGQGTQVTVSS” the “polyreactivity (PSR sort gate)” value was “low polyreactivity”. With “QVQLVESGGGLVQAGGSLRLSCAASGSTFLSNAMGWYRQAPGKERELVAAITIGGSTNYADSVKGRFTISRDNAKNTVYLQMNSLKPEDTAFYFCAADWYYDYAELTRDYDYWGQGTQVTVSS” the “polyreactivity (PSR sort gate)” value was “low polyreactivity”. For “QVQLVESGGGLVQAGGSLRLSCAASGSTFLTNAMGWYRQAPGKERELGAAITWSTGSTYYADSVKGRFTISRDNAKNTVYLQMNSLKPEDTAVYYCNARSEVSYWWGGYWGQGTQVTVSS”, the “polyreactivity (PSR sort gate)” value was “low polyreactivity”. For “QVQLVESGGGLVQAGGSLRLSCAASGSTFLTNAMGWYRQAPGKERELVAAITWSGTSTYADSVKGRFTISRDNAKNTVYLQMNSLKPDDTAVYYCAAPILSFPSPYVQYDYWGQGTQVTVSS”, the “polyreactivity (PSR sort gate)” value was “low polyreactivity”. In the case of “QVQLVESGGGLVQAGGSLRLSCAASGSTFLTNTMGWYRQAPGKERELVAAITLRGGRTYYADSVKGRFTISRDNAKNTVYLQMNSLKPEDTAVYYCNARNYYYPSDRDYWGQGTQVTVSS”, the “polyreactivity (PSR sort gate)” value is reported as “low polyreactivity”. With “QVQLVESGGGLVQAGGSLRLSCAASGSTFLVNAMGWYRQAPGKERELVAAITSGGDTNYADSVKGRFTISHDNAKNTVYLQMNSLKPEDTEVYYCATDYFNYRYFDFRWYYYWGQGTQVTVSS” the “polyreactivity (PSR sort gate)” value was “high polyreactivity”. In the case of “QVQLVESGGGLVQAGGSLRLSCAASGSTFLVYAMGWSRQAPGKERELVAAIRGGGSTNYADSVKGRFTISRDNAKNTVYLQMNSLKPEDTGVYYCAAYLLYTPSMDYWGQGTQVTVSS”, the “polyreactivity (PSR sort gate)” value is reported as “low polyreactivity”. For “QVQLVESGGGLVQAGGSLRLSCAASGSTFLWNAMGWYRQAPAKERELVAAISYSGGSTYYADSVKGRFTISRDNAMNTVYLQKNSLKPEDTAFYYCAKEWFYDPYPPGYDSWGQGPQVTVSS”, the “polyreactivity (PSR sort gate)” value was “low polyreactivity”. With “QVQLVESGGGLVQAGGSLRLSCAASGSTFLWYAMGWYTQAPGKERELVATISGSGGSTYYADSVKGRFTISRDNAKNTVYLQMNSLKPEDTAGYYCAAGTLVQRSRWVTFSAYDGDYWGQGTQVTVSS” the “polyreactivity (PSR sort gate)” value was “high polyreactivity”. For “QVQLVESGGGLVQAGGSLRLSCAASGSTFLYVMGWYRQAPGKERELVAAISESGGSTYYADSVKGRFTISRDNAKNTVYLQMNSLKPEDTAVYYCAADLQTGLQYRYYRVDYWGQGTQVTVSS”, the “polyreactivity (PSR sort gate)” value was “low polyreactivity”. For “QVQLVESGGGLVQAGGSLRLSCAASGSTFLYYAKGWSRQAPGKERELVAAISGSGGSTYYADSVKGRFTISRDNAKNTVYLQMNSLKPEDTAVYYCNAVARRHGLGPYDYWGQGTQVTVSS”, the “polyreactivity (PSR sort gate)” value was “high polyreactivity”. For “QVQLVESGGGLVQAGGSLRLSCAASGSTFLYYAMGWYRPAPGKESELVAGISASGGSTYYADSVKGRFTISRDNAKITVYLQMNSLKPEDTAVYYCARYAGFPYTQCDYWGQGTQVTVSS”, the “polyreactivity (PSR sort gate)” value was “high polyreactivity”. In the case of “QVQLVESGGGLVQAGGSLRLSCAASGSTFLYYAMGWYRQAPGKEREFVAAISISGGSTYYADSVKGRFTISRDNAKNTVYLHMNSLKPEDTAVYYFAARKKEYKPGNYWGQGTQVTVSS”, the “polyreactivity (PSR sort gate)” value is reported as “low polyreactivity”. With “QVQLVESGGGLVQAGGSLRLSCAASGSTFLYYAMGWYRQAPGKERELVAAIDWSDTSTYYADSVKGRFTISRDNAKNTVYLQMNSLKPEDTAVYYCAADTYLVDGDYWGQGTQETVSS” the “polyreactivity (PSR sort gate)” value was “low polyreactivity”. In the case of “QVQLVESGGGLVQAGGSLRLSCAASGSTFLYYAMGWYRQAPGKERELVAVISWSGVSTYYADSVKGRFTISRDNAKNTVYLQMNSLKPEDTPVYYCNTGNQYIRTYGYWGQGSQVTVSS”, the “polyreactivity (PSR sort gate)” value is reported as “low polyreactivity”. With “QVQLVESGGGLVQAGGSLRLSCAASGSTFLYYDMGWYRQAPGKERELVADITWSGSGTYYADSVKGRFTISRDNAKNTVYLQMNSLKPEDTAVYYCDADDTWRGDQYFYSYDYWGQGTQVTVSS” the “polyreactivity (PSR sort gate)” value was “low polyreactivity”. With “QVQLVESGGGLVQAGGSLRLSCAASGSTFNFNVMGWYRQAPGKERELVAAISSSGGNTYYADSVKGRFTISRDNAKNTVYLQMNSLKPEDTAVYYCAAEYEEWYSVFLYDYWGQGTQVTVSS” the “polyreactivity (PSR sort gate)” value was “high polyreactivity”. For “QVQLVESGGGLVQAGGSLRLSCAASGSTFNFYAMGWYRQAPGKEREFVAAITSSGDSTYYADSVKGRFTISRDNAKNTVYLQLNSLKPEDTAVYYCAARLRWRYSYDYWGQGTQVTVSS”, the “polyreactivity (PSR sort gate)” value was “high polyreactivity”. In the case of “QVQLVESGGGLVQAGGSLRLSCAASGSTFNGYAMGWYRQAPGKERELVAAITSSGSRTYYADSVKGRFTISRDNAKNTVYLQMNSLKPVDTAVYYCNAGKLARTYFRSSSVSPGDYWGQGTQVTVSS”, the “polyreactivity (PSR sort gate)” value is reported as “high polyreactivity”. For “QVQLVESGGGLVQAGGSLRLSCAASGSTFNHYAMGWYRQAPGKDRELVAAITKSGGSTYADSVKGRFTISRDNAKNSVYLQMNSLKPEDTAVYFCAAGRRKYGTKGRGDYWGQGTQVTVSS”, the “polyreactivity (PSR sort gate)” value was “low polyreactivity”. In the case of “QVQLVESGGGLVQAGGSLRLSCAASGSTFNHYTMGWYRQAPGKERELVAAISSRGGGTYYADSVKGRFTISRDNAKNTVYLQMNSLKPEDTAVYYCAALISSGIRHSRDYWGQGTQVTVSS”, the “polyreactivity (PSR sort gate)” value is reported as “high polyreactivity”. In the case of “QVQLVESGGGLVQAGGSLRLSCAASGSTFNINGMGWYRQAPGKERELVASITGSGGNTYYADSVKGRFTISRDNAKNTVYLQMNSLKPEDTAVYYCNTTLYTGQPGRTFDYWGQGTQVTVSS”, the “polyreactivity (PSR sort gate)” value is reported as “low polyreactivity”. With “QVQLVESGGGLVQAGGSLRLSCAASGSTFNKYTMGWYRQAPGKERELVAAISSIGGSTYYADSVKGRFTISRDNAKNTVYLQMNSLKPEDTAVYYCAAPYPIGHDWGQGTQVTVSS” the “polyreactivity (PSR sort gate)” value was “low polyreactivity”. In the case of “QVQLVESGGGLVQAGGSLRLSCAASGSTFNLYAMGWYRQAPGKERELVAAISDGDSSTYYADSVKGRFTISRDNAKNTVYLQMNSLKPEDTAVYYCNARDDVYLITPYFLVYVNLDYWGQGTQVTVSS”, the “polyreactivity (PSR sort gate)” value is reported as “low polyreactivity”. In the case of “QVQLVESGGGLVQAGGSLRLSCAASGSTFNLYAMGWYRQAPGKERELVASISRSGVSTYYADSVKGRFTISRDNAKNTVYLQMNSLKPEDTAVYYCAVDKVLYRLYTGMDYWGQGTQVTVSS”, the “polyreactivity (PSR sort gate)” value is reported as “low polyreactivity”.
